Reference: article PMC2475671

Target: Orc2-GFP (Drosophila (endogenous in salivary glands)) (UniProt Q24168)
Assay: FRET or BRET; acceptor photobleaching (543 nm laser) of Rbf1N-RFP (mCherry) with Orc2-GFP (EGFP) as donor, in chromatin-washed, formaldehyde-fixed salivary gland nuclei; ratio of bleached to non-bleached areas in three nuclei

Chain of UniProt Q24168 (Q24168 whole entry): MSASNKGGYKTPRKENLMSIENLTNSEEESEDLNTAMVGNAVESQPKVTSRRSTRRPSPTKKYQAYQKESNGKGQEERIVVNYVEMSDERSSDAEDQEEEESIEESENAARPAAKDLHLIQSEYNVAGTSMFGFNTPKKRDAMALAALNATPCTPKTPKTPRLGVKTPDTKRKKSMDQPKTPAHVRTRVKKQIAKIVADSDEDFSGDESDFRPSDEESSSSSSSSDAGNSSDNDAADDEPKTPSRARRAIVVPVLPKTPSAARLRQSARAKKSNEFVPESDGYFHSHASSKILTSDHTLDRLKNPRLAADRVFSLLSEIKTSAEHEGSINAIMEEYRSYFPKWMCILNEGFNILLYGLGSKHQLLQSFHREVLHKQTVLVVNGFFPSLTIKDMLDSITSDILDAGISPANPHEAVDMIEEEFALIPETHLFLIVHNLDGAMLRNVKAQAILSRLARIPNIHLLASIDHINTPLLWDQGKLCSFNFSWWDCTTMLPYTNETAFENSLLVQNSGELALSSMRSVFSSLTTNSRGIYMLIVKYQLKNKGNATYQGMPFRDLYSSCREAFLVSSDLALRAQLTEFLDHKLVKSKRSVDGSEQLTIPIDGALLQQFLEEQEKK

A fold increase of GFP fluorescence after RFP photobleaching of 1.5 to 2 fold was found for “Rbf1N-RFP (Rbf1 amino acids 1–345 with C-terminal V5 and mCherry, Lys241Glu) (domain or fragment)” in this work.
